For the assay, the system named is intracellular proteome of ENR+CD and ENR organoids. The assay can be described thus: LC-MS/MS TMT proteomics of ENR+CD versus ENR organoids. In kind it is cell-based, C57BL/6 mice.

B1: Q9WVJ3 (protein, UniProt Q9WVJ3 1-470, looked up)
chain: MRSLFFLFIVHLLALGSGKAVFKNGVSQRTFREIKEEIANYEDVAKAIINLAVYGKYQNRSYERLGLLVDTVGPRLSGSKNLEKAIQIMYQNLQQDGLENVHLEQVRIPHWERGEESAVMLEPRIHKMAILGLGSSIGTPPGGITAEVLVVASFDELQRRASEARGKIIVYNQPYTGYEKTVQYRVQGAVEAAKVGAVASLIQSVASFSIYSPHTGIQKYQDGVPKIPTACITVEDAEMMSRMASRGNKIVIHLEMGAKTYPDTDSFNTVAEITGSMYPEEVVLVSGHLDSWDVGQGALDDGGGAFISWEALSLVKDLGLRPKRTLRLVLWTAEEQGGIGASQYYELHKANISKYSLVMEADSGTFLPTGLQFTGSDKARAIMKEVMNLLQPLNVTKVFSNGEGTDINFWIQAGVPGASLRDDLYKYFFFHHSHGDTMTVMDPKQMNVAAAVWAVVAYVVADMDEMLPRS
modifications: full-length
Take B1: the “Average logFC” value (ENR+CD versus ENR organoids, sample pairs in aggregate (n=4, 2 technical replicates from two biological donors)) is reported as 1.351. For the setting “protein abundance ratio ENR+CD versus ENR organoids, sample pair M1-1, LC-MS/MS TMT proteomics”, the “M1-1 Log2 Median Normalized” value turned out to be 1.348. Moreover, the “M1-2 Log2 Median Normalized” value (protein abundance ratio ENR+CD versus ENR organoids, sample pair M1-2, LC-MS/MS TMT proteomics) amounted to 0.221. Besides, the “M2-1 Log2 Median Normalized” value (protein abundance ratio ENR+CD versus ENR organoids, sample pair M2-1, LC-MS/MS TMT proteomics) is given as 2.1645. Besides, for the setting “protein abundance ratio ENR+CD versus ENR organoids, sample pair M2-2, LC-MS/MS TMT proteomics”, the “M2-2 Log2 Median Normalized” value was 1.67. Under “up = enriched in ENR+CD, down = enriched in ENR, FDR<0.05 and log fold change cut-off”, the change entry is recorded as “up”.
